Test results from ChEMBL document CHEMBL2073804, “Transport of the beta -O-glucuronide conjugate of the tobacco-specific carcinogen 4-(methylnitrosamino)-1-(3-pyridyl)-1-butanol (NNAL) by the multidrug resistance protein 1 (MRP1). Requirement for glutathione or a non-sulfur-containing analog” (J Biol Chem, 2001).

Substrate: CN(CCCC(C[C@@H]1O[C@H](C(=O)O)[C@@H](O)[C@H](O)[C@H]1O)c1cccnc1)N=O
Assay: TP_TRANSPORTER: uptake, in the presence of GSH in membrane vesicle from MRP1-expressing T5 HeLa cell
Format: functional, cell membranes

B1: Multidrug resistance-associated protein 1 (Homo sapiens) (protein)
chain: MALRGFCSADGSDPLWDWNVTWNTSNPDFTKCFQNTVLVWVPCFYLWACFPFYFLYLSRHDRGYIQMTPLNKTKTALGFLLWIVCWADLFYSFWERSRGIFLAPVFLVSPTLLGITMLLATFLIQLERRKGVQSSGIMLTFWLVALVCALAILRSKIMTALKEDAQVDLFRDITFYVYFSLLLIQLVLSCFSDRSPLFSETIHDPNPCPESSASFLSRITFWWITGLIVRGYRQPLEGSDLWSLNKEDTSEQVVPVLVKNWKKECAKTRKQPVKVVYSSKDPAQPKESSKVDANEEVEALIVKSPQKEWNPSLFKVLYKTFGPYFLMSFFFKAIHDLMMFSGPQILKLLIKFVNDTKAPDWQGYFYTVLLFVTACLQTLVLHQYFHICFVSGMRIKTAVIGAVYRKALVITNSARKSSTVGEIVNLMSVDAQRFMDLATYINMIWSAPLQVILALYLLWLNLGPSVLAGVAVMVLMVPVNAVMAMKTKTYQVAHMKSKDNRIKLMNEILNGIKVLKLYAWELAFKDKVLAIRQEELKVLKKSAYLSAVGTFTWVCTPFLVALCTFAVYVTIDENNILDAQTAFVSLALFNILRFPLNILPMVISSIVQASVSLKRLRIFLSHEELEPDSIERRPVKDGGGTNSITVRNATFTWARSDPPTLNGITFSIPEGALVAVVGQVGCGKSSLLSALLAEMDKVEGHVAIKGSVAYVPQQAWIQNDSLRENILFGCQLEEPYYRSVIQACALLPDLEILPSGDRTEIGEKGVNLSGGQKQRVSLARAVYSNADIYLFDDPLSAVDAHVGKHIFENVIGPKGMLKNKTRILVTHSMSYLPQVDVIIVMSGGKISEMGSYQELLARDGAFAEFLRTYASTEQEQDAEENGVTGVSGPGKEAKQMENGMLVTDSAGKQLQRQLSSSSSYSGDISRHHNSTAELQKAEAKKEETWKLMEADKAQTGQVKLSVYWDYMKAIGLFISFLSIFLFMCNHVSALASNYWLSLWTDDPIVNGTQEHTKVRLSVYGALGISQGIAVFGYSMAVSIGGILASRCLHVDLLHSILRSPMSFFERTPSGNLVNRFSKELDTVDSMIPEVIKMFMGSLFNVIGACIVILLATPIAAIIIPPLGLIYFFVQRFYVASSRQLKRLESVSRSPVYSHFNETLLGVSVIRAFEEQERFIHQSDLKVDENQKAYYPSIVANRWLAVRLECVGNCIVLFAALFAVISRHSLSAGLVGLSVSYSLQVTTYLNWLVRMSSEMETNIVAVERLKEYSETEKEAPWQIQETAPPSSWPQVGRVEFRNYCLRYREDLDFVLRHINVTINGGEKVGIVGRTGAGKSSLTLGLFRINESAEGEIIIDGINIAKIGLHDLRFKITIIPQDPVLFSGSLRMNLDPFSQYSDEEVWTSLELAHLKDFVSALPDKLDHECAEGGENLSVGQRQLVCLARALLRKTKILVLDEATAAVDLETDDLIQSTIRTQFEDCTVLTIAHRLNTIMDYTRVIVLDKGEIQEYGAPSDLLQQRGLFYSMAKDAGLV
Km: 39 µM
